Data set [1] concerns the target T1, DEAF1-FLAG (human, UniProt O75398 1-565).
T1 sequence: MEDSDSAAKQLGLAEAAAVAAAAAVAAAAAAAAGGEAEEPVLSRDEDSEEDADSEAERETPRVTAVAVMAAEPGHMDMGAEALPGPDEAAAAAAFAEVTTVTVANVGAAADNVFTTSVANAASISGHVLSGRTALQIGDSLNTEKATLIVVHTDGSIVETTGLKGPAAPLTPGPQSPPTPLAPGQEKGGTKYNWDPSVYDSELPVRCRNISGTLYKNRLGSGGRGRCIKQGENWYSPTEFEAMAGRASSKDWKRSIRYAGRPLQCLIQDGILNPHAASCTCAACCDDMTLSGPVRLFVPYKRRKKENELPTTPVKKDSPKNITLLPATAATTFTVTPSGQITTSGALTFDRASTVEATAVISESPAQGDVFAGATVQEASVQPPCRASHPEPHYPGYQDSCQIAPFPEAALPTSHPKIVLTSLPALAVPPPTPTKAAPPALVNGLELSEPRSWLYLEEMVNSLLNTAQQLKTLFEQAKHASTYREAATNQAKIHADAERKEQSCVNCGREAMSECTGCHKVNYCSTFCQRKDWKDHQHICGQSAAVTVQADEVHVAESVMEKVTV
In words: EMSA; no shift; EMSA: 100 mM KCl, 50 mM Tris pH 7.5, 1 mM DTT, 25 °C, 30 min protein preincubation then 30 min with 32P probe; 4% native gel. The note with it: protein: recombinant; tags: FLAG (C-terminal, from the name DEAF1-FLAG; also written FLAG-DEAF1); chain copies: 2; label: 32P in EMSA. (In general: In EMSA bound probe runs differently from free probe, usually more slowly.)

Data set [2] addresses Ku70;FLAG-Ku80 (human?;human?, UniProt P12956;P13010 1-609;1-732, |). In words: EMSA; DNA end binding; EMSA: 100 mM KCl, 50 mM Tris pH 7.5, 1 mM DTT, 25 °C, 30 min protein preincubation then 30 min with 32P probe; 4% native gel. The conditions noted are these: protein: recombinant;recombinant; tags: none;FLAG (N-terminal, from the name); copies: 1;1; label: 32P in EMSA.
For data set [3], the target named is T1, DEAF1-FLAG. In words: EMSA; doublet of shifted bands; EMSA: 100 mM KCl, 50 mM Tris pH 7.5, 1 mM DTT, 25 °C, 30 min protein preincubation then 30 min with 32P probe; 4% native gel. The conditions noted are these: protein: recombinant; tags: FLAG (C-terminal, from the name DEAF1-FLAG; also written FLAG-DEAF1); chain copies: 2; label: 32P in EMSA.

Sequence of Ku70;FLAG-Ku80 (P12956 whole entry, chain 1 of 2): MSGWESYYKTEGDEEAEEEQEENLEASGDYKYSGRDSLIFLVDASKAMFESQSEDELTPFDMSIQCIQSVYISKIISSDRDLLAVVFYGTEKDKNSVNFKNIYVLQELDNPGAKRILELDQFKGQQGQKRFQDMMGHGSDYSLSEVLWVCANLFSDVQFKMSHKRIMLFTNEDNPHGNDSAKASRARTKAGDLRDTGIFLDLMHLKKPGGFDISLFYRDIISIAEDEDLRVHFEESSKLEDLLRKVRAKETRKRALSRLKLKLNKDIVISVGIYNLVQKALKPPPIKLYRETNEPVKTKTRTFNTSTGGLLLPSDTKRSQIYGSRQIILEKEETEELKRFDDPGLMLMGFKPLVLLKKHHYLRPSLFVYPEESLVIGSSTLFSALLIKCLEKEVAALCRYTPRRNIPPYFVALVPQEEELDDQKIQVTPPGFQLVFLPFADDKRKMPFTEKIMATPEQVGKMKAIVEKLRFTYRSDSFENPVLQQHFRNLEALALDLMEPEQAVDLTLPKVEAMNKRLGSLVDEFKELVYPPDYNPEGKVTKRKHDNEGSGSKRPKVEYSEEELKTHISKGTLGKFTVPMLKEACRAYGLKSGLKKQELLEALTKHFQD
Sequence of Ku70;FLAG-Ku80 (P13010 whole entry, chain 2 of 2): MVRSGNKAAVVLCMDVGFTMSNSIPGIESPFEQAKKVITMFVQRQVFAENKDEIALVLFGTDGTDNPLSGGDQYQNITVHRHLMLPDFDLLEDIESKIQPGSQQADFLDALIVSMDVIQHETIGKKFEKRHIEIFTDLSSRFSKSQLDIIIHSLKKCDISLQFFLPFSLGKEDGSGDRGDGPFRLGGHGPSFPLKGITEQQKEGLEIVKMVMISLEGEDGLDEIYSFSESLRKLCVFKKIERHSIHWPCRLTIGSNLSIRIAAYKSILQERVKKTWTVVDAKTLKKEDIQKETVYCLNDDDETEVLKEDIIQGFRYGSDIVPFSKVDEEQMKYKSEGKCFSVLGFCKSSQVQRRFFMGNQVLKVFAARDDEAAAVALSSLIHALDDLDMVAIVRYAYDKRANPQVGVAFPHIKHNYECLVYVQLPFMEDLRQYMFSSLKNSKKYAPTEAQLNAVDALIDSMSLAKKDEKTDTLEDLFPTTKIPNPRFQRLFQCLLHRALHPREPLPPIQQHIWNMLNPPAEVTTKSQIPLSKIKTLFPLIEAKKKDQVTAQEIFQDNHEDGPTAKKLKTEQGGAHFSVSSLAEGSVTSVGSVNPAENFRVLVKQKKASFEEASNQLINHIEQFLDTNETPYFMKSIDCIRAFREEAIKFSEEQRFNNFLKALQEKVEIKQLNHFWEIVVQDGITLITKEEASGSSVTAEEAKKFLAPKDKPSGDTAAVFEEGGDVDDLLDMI

B1: Mut 2 (dsDNA)
DNA 1: TTTTGCTTCCCACTTTTG
DNA 2: CAAAAGTGGGAAGCAAAA
For B1, the results for the binding result in data set [1] and in data set [2] were “no binding” and “binds”, respectively.

B2: N52-69 (dsDNA)
DNA 1: TTCGGCTTCCCACTTCGG
DNA 2: CCGAAGTGGGAAGCCGAA
For B2, the binding result in data set [2] and in data set [3] was “binds” each time.
